One series concerns the target Klp6_(440)His (S. pombe) (UniProt O59751).
In the next series the target is T1, Klp5FLGST (S. pombe, UniProt O14343 1-883).
T1 construct: Klp5, kinesin-8 of S. pombe, amino acids 1-883; it was only obtained co-expressed with Klp6FLHis; The cloning of this plasmid is not described in the methods; also called full-length Klp5; not shown: GST, C-terminal, kept
T1 sequence (looked up): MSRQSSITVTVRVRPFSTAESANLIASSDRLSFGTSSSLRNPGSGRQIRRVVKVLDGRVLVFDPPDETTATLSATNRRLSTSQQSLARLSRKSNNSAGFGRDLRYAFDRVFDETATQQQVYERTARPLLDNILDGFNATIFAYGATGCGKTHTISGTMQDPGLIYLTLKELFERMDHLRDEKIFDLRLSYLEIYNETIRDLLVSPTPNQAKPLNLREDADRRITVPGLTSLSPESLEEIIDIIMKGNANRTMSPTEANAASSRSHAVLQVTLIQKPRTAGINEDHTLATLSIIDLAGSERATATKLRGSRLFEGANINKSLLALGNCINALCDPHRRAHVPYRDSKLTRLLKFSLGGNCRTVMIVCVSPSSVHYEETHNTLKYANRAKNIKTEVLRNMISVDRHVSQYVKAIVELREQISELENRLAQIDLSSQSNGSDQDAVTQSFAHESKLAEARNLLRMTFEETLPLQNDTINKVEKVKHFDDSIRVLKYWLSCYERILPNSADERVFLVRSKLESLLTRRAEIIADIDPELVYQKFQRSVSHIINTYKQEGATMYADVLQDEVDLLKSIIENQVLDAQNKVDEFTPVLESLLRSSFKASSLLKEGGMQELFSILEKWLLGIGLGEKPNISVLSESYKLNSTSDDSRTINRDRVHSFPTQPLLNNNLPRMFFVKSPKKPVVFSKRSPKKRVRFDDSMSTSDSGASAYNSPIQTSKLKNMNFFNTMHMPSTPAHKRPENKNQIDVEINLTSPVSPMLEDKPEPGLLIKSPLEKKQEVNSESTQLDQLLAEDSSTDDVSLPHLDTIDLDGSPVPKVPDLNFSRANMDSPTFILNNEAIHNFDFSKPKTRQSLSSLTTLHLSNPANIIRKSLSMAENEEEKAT
Kind of series: pull-down; co-expressed in E. coli; sequential affinity purification from the bacterial lysate by the His tag (Ni column) and then the GST tag (eluted with 10 mM glutathione); SDS-PAGE, densitometry. As to conditions: partners not purified.

The target in series [1] is S. pombe GMPCPP microtubules (S. pombe), P04688.
Series [2] concerns the target S. pombe tubulin heterodimer (S. pombe), P04688.
Series [3] addresses Taxol stabilised pig brain microtubules (pig) (UniProt P02550).
Series [4] deals with the molecule itself. Kind of series: SEC; Superose-12 HR 10/300 GL at 4°C, 0.5 ml/min, 100 mM PIPES, 200 mM NaCl, 1 mM MgCl2, 2 mM EDTA, pH 6.9; elution compared with Ovalbumin (43 kDa) and Bovine Serum Albumin (67 kDa).
The target of series [5] is S. pombe single isoform (α1β) tubulin heterodimer (S. pombe) (UniProt P04688). The series is described as follows: SEC; 15 µM tubulin with 10.7 µM dimeric Klp6_(440)His incubated at 4°C for 30 min in 80 mM PIPES, 2.5 mM MgCl2, 1 mM EDTA, 1.5 mM GMPCPP, 1 mM DTT pH 6.9; Superose-12 at 4°C; fractions on SDS-PAGE, fluorescent stain quantified. A general note: In gel filtration, larger molecules generally elute earlier.

For series [6], the target named is S. pombe GMPCPP microtubules (S. pombe) (UniProt P04688).
Series [7] addresses S. pombe tubulin heterodimer (S. pombe) (UniProt P04688).
For series [8], the target named is pig brain tubulin heterodimer (pig) (UniProt P02550).
Sequence of pig brain tubulin heterodimer (pig) (P02550 whole entry, chain 1 of 2): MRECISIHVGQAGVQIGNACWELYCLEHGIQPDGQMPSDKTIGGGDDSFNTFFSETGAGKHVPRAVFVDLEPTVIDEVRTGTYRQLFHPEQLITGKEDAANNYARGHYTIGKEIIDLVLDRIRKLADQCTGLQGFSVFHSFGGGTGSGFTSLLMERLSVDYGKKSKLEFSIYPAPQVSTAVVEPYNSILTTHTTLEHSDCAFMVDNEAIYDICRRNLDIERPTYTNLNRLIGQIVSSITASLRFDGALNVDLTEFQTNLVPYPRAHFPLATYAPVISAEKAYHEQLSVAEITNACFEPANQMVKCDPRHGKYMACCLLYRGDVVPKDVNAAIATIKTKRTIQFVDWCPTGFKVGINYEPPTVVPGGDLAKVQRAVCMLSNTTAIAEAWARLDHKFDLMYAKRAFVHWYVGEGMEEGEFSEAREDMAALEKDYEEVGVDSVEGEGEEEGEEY
Sequence of pig brain tubulin heterodimer (pig) (Q767L7 whole entry, chain 2 of 2, further chain): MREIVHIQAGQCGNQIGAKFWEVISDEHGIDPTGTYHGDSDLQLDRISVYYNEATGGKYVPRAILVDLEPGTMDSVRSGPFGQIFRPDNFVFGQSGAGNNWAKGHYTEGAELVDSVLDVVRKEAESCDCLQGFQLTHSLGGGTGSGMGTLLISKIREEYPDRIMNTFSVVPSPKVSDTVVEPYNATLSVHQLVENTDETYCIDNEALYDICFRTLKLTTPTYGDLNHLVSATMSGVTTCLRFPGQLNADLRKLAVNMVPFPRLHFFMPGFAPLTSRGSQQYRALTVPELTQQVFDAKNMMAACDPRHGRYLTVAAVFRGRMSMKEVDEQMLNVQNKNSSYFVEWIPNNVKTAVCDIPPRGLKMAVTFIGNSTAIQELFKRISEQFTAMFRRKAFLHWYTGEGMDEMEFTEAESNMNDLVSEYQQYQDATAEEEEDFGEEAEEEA

Sequence of S. pombe tubulin heterodimer (S. pombe), P04688 (P04688 whole entry, chain 1 of 2): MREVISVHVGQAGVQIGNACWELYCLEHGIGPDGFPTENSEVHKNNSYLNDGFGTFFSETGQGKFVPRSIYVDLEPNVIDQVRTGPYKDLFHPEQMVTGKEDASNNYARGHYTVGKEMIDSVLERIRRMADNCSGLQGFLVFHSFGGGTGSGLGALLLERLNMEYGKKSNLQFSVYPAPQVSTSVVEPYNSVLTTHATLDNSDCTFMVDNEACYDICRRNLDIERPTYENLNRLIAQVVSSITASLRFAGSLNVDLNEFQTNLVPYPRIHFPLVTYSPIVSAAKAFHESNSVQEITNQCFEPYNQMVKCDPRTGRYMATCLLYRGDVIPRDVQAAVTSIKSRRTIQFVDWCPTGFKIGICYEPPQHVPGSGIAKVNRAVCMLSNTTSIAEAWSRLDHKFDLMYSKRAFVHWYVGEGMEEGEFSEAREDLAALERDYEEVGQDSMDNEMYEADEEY
Sequence of S. pombe tubulin heterodimer (S. pombe), P04688 (P05219 whole entry, chain 2 of 2, further chain): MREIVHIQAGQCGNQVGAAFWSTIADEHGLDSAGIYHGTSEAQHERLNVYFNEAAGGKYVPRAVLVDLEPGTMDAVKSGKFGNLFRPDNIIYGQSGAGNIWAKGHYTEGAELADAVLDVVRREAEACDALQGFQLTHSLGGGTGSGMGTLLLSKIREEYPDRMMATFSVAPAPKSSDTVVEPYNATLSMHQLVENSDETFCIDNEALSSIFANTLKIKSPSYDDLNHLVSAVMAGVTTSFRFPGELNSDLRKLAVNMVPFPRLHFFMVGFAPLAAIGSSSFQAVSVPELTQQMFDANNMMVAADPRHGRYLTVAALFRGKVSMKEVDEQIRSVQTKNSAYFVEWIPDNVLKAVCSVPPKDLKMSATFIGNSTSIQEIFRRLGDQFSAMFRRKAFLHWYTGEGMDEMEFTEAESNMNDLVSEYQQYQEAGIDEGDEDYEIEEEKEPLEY
Sequence of S. pombe tubulin heterodimer (S. pombe) (P04688 whole entry, chain 1 of 2): as the sequence (P04688 whole entry, chain 1 of 2) above
Sequence of S. pombe tubulin heterodimer (S. pombe) (P05219 whole entry, chain 2 of 2, further chain): as the sequence (P05219 whole entry, chain 2 of 2, further chain) above

With “pig brain tubulin heterodimer (from UniProt P02550 1-451; Q767L7 1-444) (complex)”, in the series with Klp6_(440)His (S. pombe), the Ki of tubulin heterodimers for inhibition of the Klp6 (440)His ATPase stimulated by 73 nM Taxol stabilised pig brain microtubules (blocked pair: m3 with m12) stood at 175 nM.

For the molecule “S. pombe tubulin heterodimer (from UniProt P04688 1-455; P05219 1-448) (complex)”, the Ki of tubulin heterodimers for inhibition of the Klp6 (440)His ATPase stimulated by 73 nM Taxol stabilised pig brain microtubules (blocked pair: m3 with m12) in the series with Klp6_(440)His (S. pombe) came to 121 nM.

B1: Klp6FLHis (natural protein, S. pombe, UniProt O59751 1-784, looked up)
chain: MKEGSSISVAVRVRPFTEREKGLLAETPKSKEFLGDGSLAVSNTSSNTFCTNGIRKIVRVLDDNVLIFDPPEENPLAKVQKSLLPAGKRFRDVRYAFDRLFGEEASQEDVYKGTTEPLLDSVLQGYNATVFAYGATGCGKTHTISGRPDDPGIIFLTMRALLDRVEGLKRTMNVDISVSYLEIYNEKIRDLLVQDPLSMEKPKSLNICEDAEQNVSVPGLSYFTPTNLEEVMEIIIRGNSNRTMSPTEANAVSSRSHAVLQIYITQTPKSGEKQEESESQNSHKVRSVFSFIDLAGSERASATKNRGKRLVEGANINRSLLALGNCINSLCEPRRRQHVPYRDSKLTRLLKFSLGGNCRTCMIVCISPSSEHYDETHNTLKYGNRAKNIKTKVSRNVVSVDRHVSEYVRTIYELRQKVSILQKRIAEESKQLALNKEVRKISSREIKMLDARSMLKNSFDGSRDLQKSLIEHVRTLRRIEDEITLTKMWISIAKESDAMSGHNIKSVETRLAKLYDQRSLITAKVNPEEICKTFQNSISHIVSSFKGEGADMYADMLQDDVDLLKSIIENQILDAKHESETFSSTSRKLIQNLFLLFPLLPGNAIDVNESLARAFDQLVGIVPSEPTIQVPNLIEKGKAPLLSMFEIPRSPSRFKARSPSKAARVLKKPLKKRVRFSEVPTTSSVPPVEIKNKDSKPKVEKSLDKHNMNNDRSFLVPSRDARNSLTSLSLHSNVAKNKSSHSSKWPTHTLSPIITTALKQPVRRISLVSQPLQKTGGTENTPNA
notes: Klp6, kinesin-8 of S. pombe, amino acids 1-784; also called full-length Klp6; Klp6(aa1-784)/GlyGly/6xHis tag; not shown: His6 (after a GlyGly linker), C-terminal, kept
Turning to B1, the “molar ratio of Klp6FLHis : Klp5FLGST in the sequentially purified fraction” value with Klp5FLGST came to 3.2 Klp6FLHis per Klp5FLGST.

B2: Klp6_(440)His, O59751 1-440 (domain or fragment)
chain: MKEGSSISVAVRVRPFTEREKGLLAETPKSKEFLGDGSLAVSNTSSNTFCTNGIRKIVRVLDDNVLIFDPPEENPLAKVQKSLLPAGKRFRDVRYAFDRLFGEEASQEDVYKGTTEPLLDSVLQGYNATVFAYGATGCGKTHTISGRPDDPGIIFLTMRALLDRVEGLKRTMNVDISVSYLEIYNEKIRDLLVQDPLSMEKPKSLNICEDAEQNVSVPGLSYFTPTNLEEVMEIIIRGNSNRTMSPTEANAVSSRSHAVLQIYITQTPKSGEKQEESESQNSHKVRSVFSFIDLAGSERASATKNRGKRLVEGANINRSLLALGNCINSLCEPRRRQHVPYRDSKLTRLLKFSLGGNCRTCMIVCISPSSEHYDETHNTLKYGNRAKNIKTKVSRNVVSVDRHVSEYVRTIYELRQKVSILQKRIAEESKQLALNKEVRK
B2: the Km of the microtubule stimulated ATPase (S. pombe GMPCPP microtubules), linked assay at 25°C in series [1] amounted to 0.056 µM. In addition, the Km of the tubulin heterodimer stimulated ATPase (S. pombe tubulin), linked assay at 25°C in [2] was 0.373 µM.

B3: Klp6_(440)His (domain or fragment, S. pombe, UniProt O59751 1-440, looked up)
chain: MKEGSSISVAVRVRPFTEREKGLLAETPKSKEFLGDGSLAVSNTSSNTFCTNGIRKIVRVLDDNVLIFDPPEENPLAKVQKSLLPAGKRFRDVRYAFDRLFGEEASQEDVYKGTTEPLLDSVLQGYNATVFAYGATGCGKTHTISGRPDDPGIIFLTMRALLDRVEGLKRTMNVDISVSYLEIYNEKIRDLLVQDPLSMEKPKSLNICEDAEQNVSVPGLSYFTPTNLEEVMEIIIRGNSNRTMSPTEANAVSSRSHAVLQIYITQTPKSGEKQEESESQNSHKVRSVFSFIDLAGSERASATKNRGKRLVEGANINRSLLALGNCINSLCEPRRRQHVPYRDSKLTRLLKFSLGGNCRTCMIVCISPSSEHYDETHNTLKYGNRAKNIKTKVSRNVVSVDRHVSEYVRTIYELRQKVSILQKRIAEESKQLALNKEVRK
notes: Klp6 of S. pombe, amino acids 1-440: motor domain and complete putative coiled-coil domain; Homodimer by Superose 12 gel filtration; also called Klp6(aa1-440)/GlyGly/6xHis tag; Klp440His; source: E. coli Rosetta 2 (DE3), purified (HisTrap); not shown: His6 (after a GlyGly linker), C-terminal, kept
In general, stoichiometry N refers to a count of units in the complex or per binding partner. For the molecule B3, the Km of the microtubule stimulated ATPase (Taxol stabilised pig brain microtubules), linked assay at 25°C in [3] worked out at 0.085 µM. In series [4], the “stoichiometry N” value amounted to 2. This molecule showed a stoichiometry N (tubulin heterodimer per kinesin head) in series [5] of 1.

B4: Klp5_(436)GST (domain or fragment)
chain: MSRQSSITVTVRVRPFSTAESANLIASSDRLSFGTSSSLRNPGSGRQIRRVVKVLDGRVLVFDPPDETTATLSATNRRLSTSQQSLARLSRKSNNSAGFGRDLRYAFDRVFDETATQQQVYERTARPLLDNILDGFNATIFAYGATGCGKTHTISGTMQDPGLIYLTLKELFERMDHLRDEKIFDLRLSYLEIYNETIRDLLVSPTPNQAKPLNLREDADRRITVPGLTSLSPESLEEIIDIIMKGNANRTMSPTEANAASSRSHAVLQVTLIQKPRTAGINEDHTLATLSIIDLAGSERATATKLRGSRLFEGANINKSLLALGNCINALCDPHRRAHVPYRDSKLTRLLKFSLGGNCRTVMIVCVSPSSVHYEETHNTLKYANRAKNIKTEVLRNMISVDRHVSQYVKAIVELREQISELENRLAQIDLSSQSN
Consider B4, for which the Km of the microtubule stimulated ATPase (Taxol stabilised pig brain microtubules), linked assay at 25°C in [3] is 0.0278 µM.

B5: Klp5_(436)GST, O14343 1-436 (domain or fragment)
chain: MSRQSSITVTVRVRPFSTAESANLIASSDRLSFGTSSSLRNPGSGRQIRRVVKVLDGRVLVFDPPDETTATLSATNRRLSTSQQSLARLSRKSNNSAGFGRDLRYAFDRVFDETATQQQVYERTARPLLDNILDGFNATIFAYGATGCGKTHTISGTMQDPGLIYLTLKELFERMDHLRDEKIFDLRLSYLEIYNETIRDLLVSPTPNQAKPLNLREDADRRITVPGLTSLSPESLEEIIDIIMKGNANRTMSPTEANAASSRSHAVLQVTLIQKPRTAGINEDHTLATLSIIDLAGSERATATKLRGSRLFEGANINKSLLALGNCINALCDPHRRAHVPYRDSKLTRLLKFSLGGNCRTVMIVCVSPSSVHYEETHNTLKYANRAKNIKTEVLRNMISVDRHVSQYVKAIVELREQISELENRLAQIDLSSQSN
Turning to B5, in series [1], the Km of the microtubule stimulated ATPase (S. pombe GMPCPP microtubules), linked assay at 25°C worked out at 0.045 µM. Moreover, the Km of the tubulin heterodimer stimulated ATPase (S. pombe tubulin), linked assay at 25°C in series [2] worked out at 0.108 µM.

B6: Klp5_(436) (domain or fragment)
chain: MSRQSSITVTVRVRPFSTAESANLIASSDRLSFGTSSSLRNPGSGRQIRRVVKVLDGRVLVFDPPDETTATLSATNRRLSTSQQSLARLSRKSNNSAGFGRDLRYAFDRVFDETATQQQVYERTARPLLDNILDGFNATIFAYGATGCGKTHTISGTMQDPGLIYLTLKELFERMDHLRDEKIFDLRLSYLEIYNETIRDLLVSPTPNQAKPLNLREDADRRITVPGLTSLSPESLEEIIDIIMKGNANRTMSPTEANAASSRSHAVLQVTLIQKPRTAGINEDHTLATLSIIDLAGSERATATKLRGSRLFEGANINKSLLALGNCINALCDPHRRAHVPYRDSKLTRLLKFSLGGNCRTVMIVCVSPSSVHYEETHNTLKYANRAKNIKTEVLRNMISVDRHVSQYVKAIVELREQISELENRLAQIDLSSQSN
With B6, in series [6], the Km of the microtubule stimulated ATPase (S. pombe GMPCPP microtubules), linked assay at 25°C amounted to 0.05 µM. Also, the Km of the tubulin heterodimer stimulated ATPase (S. pombe tubulin), linked assay at 25°C in [7] amounted to 0.336 µM. Further, the Km of the microtubule stimulated ATPase (Taxol stabilised pig brain microtubules), linked assay at 25°C in series [3] is 0.045 µM. In series [8], the Km of the tubulin heterodimer stimulated ATPase (pig brain tubulin), linked assay at 25°C came to 0.427 µM.
